Experimental data from PMC5412928, “Engineered ligand‐based VEGFR antagonists with increased receptor binding affinity more effectively inhibit angiogenesis” (Bioengineering & Translational Medicine, 2017).
Substitutions are numbered along the chain they refer to. One block for each binder: values may come before it.

Legend:
[1] = target: T1, human VEGFR2 on PAE/KDR cells (human, UniProt P35968 20-1356); assay: flow cytometry on cells; soluble FLAG-tagged scVEGF variants titrated on 50,000 PAE/KDR cells in integrin binding buffer (20 mM Tris pH 7.5, 100 mM NaCl, 1 mM MgCl2, 1 mM MnCl2, 2 mM CaCl2, 1 mg/ml BSA), 4°C, 4–6 hr; phycoerythrin anti-FLAG antibody; sigmoidal fit of mean fluorescence; details: one partner purified
T1 construct: VEGFR2 (KDR), human, stably expressed on porcine aortic endothelial cells; also called vascular endothelial growth factor receptor 2; source: porcine aortic endothelial (PAE) cells stably transfected to express human VEGFR2 (PAE/KDR cells), on cells
T1 sequence (P35968 20-1356): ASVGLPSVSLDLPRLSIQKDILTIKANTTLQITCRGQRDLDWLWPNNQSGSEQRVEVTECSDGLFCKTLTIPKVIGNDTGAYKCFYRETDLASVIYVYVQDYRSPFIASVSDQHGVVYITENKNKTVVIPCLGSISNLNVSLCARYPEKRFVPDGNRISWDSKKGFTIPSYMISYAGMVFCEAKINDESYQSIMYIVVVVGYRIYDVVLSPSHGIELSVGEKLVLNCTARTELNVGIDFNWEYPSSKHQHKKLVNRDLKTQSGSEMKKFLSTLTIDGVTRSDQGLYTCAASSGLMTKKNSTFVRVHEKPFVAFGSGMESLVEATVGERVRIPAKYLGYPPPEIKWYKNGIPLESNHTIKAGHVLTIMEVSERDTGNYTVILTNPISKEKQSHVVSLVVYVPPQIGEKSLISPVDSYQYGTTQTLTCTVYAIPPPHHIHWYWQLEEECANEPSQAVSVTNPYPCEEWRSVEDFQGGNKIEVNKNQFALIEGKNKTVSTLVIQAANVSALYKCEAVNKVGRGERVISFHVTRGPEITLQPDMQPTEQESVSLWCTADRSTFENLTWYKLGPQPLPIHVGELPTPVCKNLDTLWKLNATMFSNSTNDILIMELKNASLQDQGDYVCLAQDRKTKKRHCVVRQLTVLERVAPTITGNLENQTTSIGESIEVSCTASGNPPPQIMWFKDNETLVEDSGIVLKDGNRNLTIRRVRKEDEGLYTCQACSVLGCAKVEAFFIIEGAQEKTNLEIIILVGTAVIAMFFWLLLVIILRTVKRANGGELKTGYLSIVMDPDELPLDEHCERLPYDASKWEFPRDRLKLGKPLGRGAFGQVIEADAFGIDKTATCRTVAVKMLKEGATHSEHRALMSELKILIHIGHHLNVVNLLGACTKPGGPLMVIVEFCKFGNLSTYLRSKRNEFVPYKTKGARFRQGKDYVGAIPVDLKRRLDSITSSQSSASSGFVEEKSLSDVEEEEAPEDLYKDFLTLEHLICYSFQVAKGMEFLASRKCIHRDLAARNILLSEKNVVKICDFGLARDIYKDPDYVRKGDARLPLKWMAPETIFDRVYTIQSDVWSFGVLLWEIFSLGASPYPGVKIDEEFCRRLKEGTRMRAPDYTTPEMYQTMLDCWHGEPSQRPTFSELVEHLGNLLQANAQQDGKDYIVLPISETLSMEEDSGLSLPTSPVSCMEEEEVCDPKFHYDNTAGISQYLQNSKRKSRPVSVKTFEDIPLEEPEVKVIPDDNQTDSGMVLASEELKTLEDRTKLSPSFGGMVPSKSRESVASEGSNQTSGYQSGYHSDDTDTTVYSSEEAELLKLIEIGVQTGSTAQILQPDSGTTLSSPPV

[2] = target: T2, VEGFR2 on HUVECs (human (endogenous in HUVECs), UniProt P35968 20-1356); assay: flow cytometry on cells; apparent; soluble FLAG-tagged scVEGF variants titrated on 50,000 serum-starved HUVECs (bear VEGFR2 and αvβ3 integrin) in integrin binding buffer, 4°C, 4–6 hr; phycoerythrin anti-FLAG antibody; sigmoidal fit; details: one partner purified
T2 construct: VEGFR2, endogenous on HUVECs; HUVECs also bear αvβ3 integrin; source: endogenous, on human umbilical vein endothelial cells (HUVECs)
T2 sequence (P35968 20-1356): as above

Kd [1]: 27 nM
fold tighter binding of scVEGFmE7I than of scVEGFmut [2]: ≥ 330 fold
B1: scVEGFmut (ligand)
chain: APMAEGGGQNHHEVVKAMDVYQRSYCHPIETLVDIFQEYPDEIEYIFKPSCVPLMRCGGCCNDAGLECVPTEESNITMQIMRIKPHQGQHIGEMSFLQHNKCECRPKKDGSTSGSGKSSEGKGAPMAEGGGQNHHEVVKFMDVYQRSYCHPIETLVDIFQEYPDEIEYAFKPSCVPLMRCGGCCNDEGLECVPTEESNITMQIMRAKPHQGQHIGEMSFLQHNKCECRPKKD

Kd [2]: 3.8 nM
B2: scVEGFwt (ligand)
chain: B1 chain with A17F, A64E, A169I, A206I
